Measured values taken from patent publication US20210130452A1 (Merck KGaA, published 2021).
Positions count from the first letter of the chain named.

Tests used:
[1] = target: T1, human IL-17D (human, UniProt Q8TAD2 18-202, limits assumed); assay: SPR, cytokine on chip
T1 construct: expressed in E. coli; also called hIL-17D
T1 sequence (looked up): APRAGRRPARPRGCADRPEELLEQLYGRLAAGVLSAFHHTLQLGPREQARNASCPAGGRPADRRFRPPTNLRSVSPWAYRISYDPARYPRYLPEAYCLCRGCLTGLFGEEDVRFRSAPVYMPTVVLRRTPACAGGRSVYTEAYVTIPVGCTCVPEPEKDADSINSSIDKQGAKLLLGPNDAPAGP

[2] = target: T2, human IL-17C (human, UniProt Q9P0M4 19-197); assay: SPR, cytokine on chip
T2 construct: expressed in E. coli; also called hIL-17C
T2 sequence (looked up): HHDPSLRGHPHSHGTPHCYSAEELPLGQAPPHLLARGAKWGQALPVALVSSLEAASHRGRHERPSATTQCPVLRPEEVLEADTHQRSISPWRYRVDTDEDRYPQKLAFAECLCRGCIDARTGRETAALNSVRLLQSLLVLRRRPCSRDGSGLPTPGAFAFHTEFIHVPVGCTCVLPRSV

[3] = target: T3, human IL-17B (human, UniProt Q9UHF5 21-180); assay: SPR, cytokine on chip
T3 construct: expressed in E. coli; also called hIL-17B
T3 sequence (looked up): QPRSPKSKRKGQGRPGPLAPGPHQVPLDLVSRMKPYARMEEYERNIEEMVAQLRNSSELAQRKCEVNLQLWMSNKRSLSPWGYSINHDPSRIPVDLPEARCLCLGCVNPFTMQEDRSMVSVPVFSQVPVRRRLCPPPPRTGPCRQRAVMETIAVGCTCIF

[4] = target: T4, human IL-17E (human, UniProt Q9H293 33-177); assay: SPR, cytokine on chip
T4 construct: expressed in E. coli; also called hIL-17E
T4 sequence (looked up): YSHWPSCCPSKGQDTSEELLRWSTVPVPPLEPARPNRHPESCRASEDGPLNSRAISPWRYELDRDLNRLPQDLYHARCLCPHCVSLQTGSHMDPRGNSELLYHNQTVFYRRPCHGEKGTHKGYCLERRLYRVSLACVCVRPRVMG

[5] = target: T5, mouse IL-17F (mouse, UniProt Q7TNI7 29-161); assay: binding ELISA
T5 sequence (looked up): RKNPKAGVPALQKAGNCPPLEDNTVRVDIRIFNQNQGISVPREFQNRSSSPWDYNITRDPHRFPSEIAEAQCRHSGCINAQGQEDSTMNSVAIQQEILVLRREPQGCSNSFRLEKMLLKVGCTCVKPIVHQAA

[6] = target: T6, rat IL-17F (rat, UniProt Q5BJ95 29-161); assay: binding ELISA
T6 sequence (looked up): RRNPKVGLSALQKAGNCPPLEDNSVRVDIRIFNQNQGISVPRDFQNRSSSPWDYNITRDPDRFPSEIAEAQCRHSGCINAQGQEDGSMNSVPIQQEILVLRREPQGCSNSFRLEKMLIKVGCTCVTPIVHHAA

[7] = target: T7, human IL-17A (human, UniProt Q16552 24-155, biotinylated with Sulfo-NHS-LC-Biotin in the AlphaScreen assays only); assay: AlphaScreen competition, hIL-17A - IL-17RC-Fc;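 further: Read-out after 1 h at room temperature with the receptor Fc-fusion, Acceptor beads and streptavidin-coated Donor beads present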
T7 construct: also called hIL-17A; recombinant human IL-17A

[8] = target: T8, human IL-17A/F heterodimer (human, UniProt Q16552 24-155; Q96PD4 31-163, limits assumed, biotinylated with Sulfo-NHS-LC-Biotin in the AlphaScreen assays only); assay: AlphaScreen competition, hIL-17A/F - IL-17RA-Fc
T8 construct: also called hIL-17A/F

[9] = target: T7, human IL-17A; assay: cell-based or functional assay
[10] = target: T7, human IL-17A; assay: AlphaScreen competition, hIL-17A - IL-17RA-Fc;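 further: receptor Fc-fusion plus Acceptor and streptavidin Donor beads incubated with the mixture for 1 h at room temperature before reading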
[11] = target: T7, human IL-17A; assay: SPR Biacore, hIL-17A on chip; purified protein
[12] = target: T8, human IL-17A/F heterodimer; assay: AlphaScreen competition, hIL-17A/F - IL-17RC-Fc
[13] = target: T8, human IL-17A/F heterodimer; assay: SPR Biacore, hIL-17A/F on chip; purified protein
[14] = target: T9, human IL-17F (human, UniProt Q96PD4 31-163, biotinylated with Sulfo-NHS-LC-Biotin in the AlphaScreen assays only); assay: SPR Biacore, hIL-17F on chip; periplasmic extract (*); NB = no binding
T9 construct: also called hIL-17F; recombinant human IL-17F
T9 sequence: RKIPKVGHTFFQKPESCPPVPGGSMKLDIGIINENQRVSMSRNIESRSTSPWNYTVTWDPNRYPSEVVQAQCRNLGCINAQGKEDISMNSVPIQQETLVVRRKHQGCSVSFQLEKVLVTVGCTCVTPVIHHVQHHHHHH

[15] = target: T8, human IL-17A/F heterodimer; assay: cell-based or functional assay

T8 sequence (Q16552 24-155 limits assumed, chain 1 of 2, one chain of several): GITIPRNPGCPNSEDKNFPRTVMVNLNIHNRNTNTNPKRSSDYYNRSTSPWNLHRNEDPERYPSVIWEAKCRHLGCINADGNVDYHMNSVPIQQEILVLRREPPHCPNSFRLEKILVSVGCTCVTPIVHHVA
T7 sequence (Q16552 other isoform, or with tags, fused parts or gaps): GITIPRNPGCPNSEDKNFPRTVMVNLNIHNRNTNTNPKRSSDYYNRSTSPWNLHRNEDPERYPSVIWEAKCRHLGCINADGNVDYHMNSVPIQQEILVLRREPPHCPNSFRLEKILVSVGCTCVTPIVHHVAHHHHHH

B1: 16A04 (VHH)
VHH: EVQLVESGGGLVQAGGSLRLSCAASGRTFSSYVVGWFRQAPGKEREFIGAISGSGDSIYYAVSEKDRFTISRDNGKNTLYLQMSSLKAEDTAVYYCTADQEFGYLRFGRSEYWGQGTQVTVSS
notes: Class 3; also called IL17MS16A04
Question: Does B1 bind [1]?
Answer: no binding

Question: Does B1 bind [2]?
Answer: no binding

Question: Does B1 bind [3]?
Answer: no binding

Question: Does B1 bind [4]?
Answer: no binding

Question: Does B1 bind [5]?
Answer: no binding (tested: 250 nM)

Question: Does B1 bind [6]?
Answer: no binding (tested: 250 nM)

B2: 06E11 (VHH)
VHH: EVQLVESGGGLVQAGGSLRLSCPVSGRAFSRGRLGWFRQAPGKEREFVAVAHWSGAITSYADSVKGRFTFSRDNAKNTMNLQMNSLKPEDTAVYYCAADSETSGNWVYWGQGTQVTVSS
notes: Class 3
Question: Does B2 bind [1]?
Answer: no binding

Question: Does B2 bind [2]?
Answer: no binding

Question: Does B2 bind [3]?
Answer: no binding

Question: Does B2 bind [4]?
Answer: no binding

Question: Does B2 bind [5]?
Answer: no binding (tested: 250 nM)

Question: Does B2 bind [6]?
Answer: no binding (tested: 250 nM)

B3: 24B08 (VHH)
VHH: EVQLVESGGGLVQAGGSLRLSCAVSGGTFSTYKMGWFRQAPGKEREIVARISTNGPTAYAEFVKGRFTVSRENTKNTVYLQMNSLNIEDTAVYYCAAGYDSLFAGYDYWGQGTQVTVSS
notes: Class 3
Question: Does B3 bind [5]?
Answer: no binding (tested: 250 nM)

Question: Does B3 bind [6]?
Answer: no binding (tested: 250 nM)

B4: 07B11 (VHH)
VHH: EVQLVESGGGLVQAGGSLRLSCVASGRAFSSYVMGWFRQAPGMEREFVALIRWSDGITGYVDSVKGRFTISRDNAKNTVYLQMNSLKPEDTAVYYCAAAVRPGDYDYWGQGTQVTVSS
notes: Class 3
Question: Does B4 bind [1]?
Answer: no binding

Question: Does B4 bind [2]?
Answer: no binding

Question: Does B4 bind [3]?
Answer: no binding

Question: Does B4 bind [4]?
Answer: no binding

Question: Does B4 bind [5]?
Answer: no binding (tested: 250 nM)

Question: Does B4 bind [6]?
Answer: no binding (tested: 250 nM)

B5: 02A10 (VHH)
VHH: EVQLVESGGGLVQPGGSLRLSCAASGFALGYYAIGWFRQAPGKEREGVSCDSSSDGRTYYGDSVKGRFTISTDSAKNTVYLQMNSLKPEDTAVYYCATCTDFEYDYWGQGTQVTVSS
notes: Class 2 Nanobody (anti-IL-17A and IL-17A/F); not shown: c-myc, His6 tag
Question: B5 was tested. Which IC50 [7] did it give?
Answer: 0.381 nM

Question: What about the IC50 [8] of the same binder?
Answer: 0.199 nM

Question: And the “IL-17A-induced IL-6 production in HT-1080 cells, Emax” value (“IL-17A-induced IL-6 production … Emax” for short) [9]?
Answer: 104%

Question: What about the “IL-17A-induced IL-6 production in HT-1080 cells, IC50” value (from here on “IL-17A-induced IL-6 production … IC50”) [9] of the same binder?
Answer: 4.3 nM

Question: And the IC50 [10]?
Answer: 0.115 nM

Question: And the koff [11]?
Answer: 0.00022 s⁻¹

Question: And the IC50 [12]?
Answer: 0.248 nM

Question: And the koff [13]?
Answer: 0.00028 s⁻¹

Question: Does B5 bind [14]?
Answer: no binding

Question: What about the “IL-17A/F-induced IL-6 production in HT-1080 cells, Emax” value [15] of the same binder?
Answer: 98.5%

Question: What about the “IL-17A/F-induced IL-6 production in HT-1080 cells, IC50” value [15] of the same binder?
Answer: 29.2 nM

B6: 04B10 (VHH)
VHH: EVQLVESGGGLVQAGGSQSLSCVASGTIVNINVMGWYRQAPGKQRELVALITSGGGTTYGDSVKGRFTISIDNAKNTVILQMNSLEAEDTAVYYCAAEIGYYSGGTYFSSEAHWGQGTQVTVSS
notes: as for B5
Question: B6 was tested. Which IC50 [7] did it give?
Answer: 0.366 nM

Question: And the IC50 [8]?
Answer: 0.095 nM

Question: And the “IL-17A-induced IL-6 production … Emax” value [9]?
Answer: 99.7%

Question: And the “IL-17A-induced IL-6 production … IC50” value [9]?
Answer: 5.1 nM

Question: And the IC50 [10]?
Answer: 0.068 nM

Question: What about the koff [11] of the same binder?
Answer: 0.0004 s⁻¹

Question: And the IC50 [12]?
Answer: 0.052 nM

Question: What about the koff [13] of the same binder?
Answer: 0.0005 s⁻¹

Question: Does B6 bind [14]?
Answer: no binding

Question: And the “IL-17A/F-induced IL-6 production in HT-1080 cells, Emax” value [15]?
Answer: 97%

Question: And the “IL-17A/F-induced IL-6 production in HT-1080 cells, IC50” value [15]?
Answer: 59.2 nM

B7: 04F09 (VHH)
VHH: EVQLVESGGGLVQPGGSLRLSCAASGRTFSTHAMGWFRQAPGKERDFVAAIRWSDGSSFYADSVKGRFTISRDNAKNAVYLQSNSLKSEDTAVYVCYADVEGPTALHKYWGRGTQVTVSS
notes: as for B5
Question: For B7, which IC50 [7] is on record?
Answer: 0.468 nM

Question: What about the IC50 [8] of the same binder?
Answer: 3.98 nM

Question: And the “IL-17A-induced IL-6 production … Emax” value [9]?
Answer: 111%

Question: And the “IL-17A-induced IL-6 production … IC50” value [9]?
Answer: 9.7 nM

Question: What about the IC50 [10] of the same binder?
Answer: 0.099 nM

Question: And the koff [11]?
Answer: 0.00063 s⁻¹

Question: What about the IC50 [12] of the same binder?
Answer: 3.15 nM

Question: What about the koff [13] of the same binder?
Answer: 0.0081 s⁻¹

Question: Does B7 bind [14]?
Answer: no binding

Question: What about the “IL-17A/F-induced IL-6 production in HT-1080 cells, Emax” value [15] of the same binder?
Answer: 68.5%

Question: What about the “IL-17A/F-induced IL-6 production in HT-1080 cells, IC50” value [15] of the same binder?
Answer: 45.9 nM

B8: 07B09 (VHH)
VHH: EVQLVESGGGLVQAGGSLRLSCGASGGTFSSYATGWFRQAPGKEREFVAVLRWSDGHTAYADSVKGRFTISRDGAKNTMYLQMSSLKPEDTAIYYCTTATRPGEWDYWGQGTQVTVSS
notes: Class 3
Question: Does B8 bind [1]?
Answer: no binding

Question: Does B8 bind [2]?
Answer: no binding

Question: Does B8 bind [3]?
Answer: no binding

Question: Does B8 bind [4]?
Answer: no binding

Question: Does B8 bind [5]?
Answer: no binding (tested: 250 nM)

Question: Does B8 bind [6]?
Answer: no binding (tested: 250 nM)

B9: 08H01 (VHH)
VHH: B8 VHH with G56S, K65E, M79V, A99G, D106H
notes: Class 3
Question: Does B9 bind [1]?
Answer: no binding

Question: Does B9 bind [2]?
Answer: no binding

Question: Does B9 bind [3]?
Answer: no binding

Question: Does B9 bind [4]?
Answer: no binding

Question: Does B9 bind [5]?
Answer: no binding (tested: 250 nM)

Question: Does B9 bind [6]?
Answer: no binding (tested: 250 nM)

B10: 24G10 (VHH)
VHH: B8 VHH with S25A, L51F, G56S, M79L
notes: Class 3
Question: Does B10 bind [1]?
Answer: no binding

Question: Does B10 bind [2]?
Answer: no binding

Question: Does B10 bind [3]?
Answer: no binding

Question: Does B10 bind [4]?
Answer: no binding

Question: Does B10 bind [5]?
Answer: no binding (tested: 250 nM)

Question: Does B10 bind [6]?
Answer: no binding (tested: 250 nM)
